In test [1] the target is Gal-3–8S–Gal-1 (covalently connected heterodimer, Gal-3 CRD, 33-aa Gal-8 linker, Gal-1 CRD) (human). The experiment in a line: SEC. In general terms: Size exclusion chromatography separates by hydrodynamic size, large species first.
Test [2] has the same target. The experiment in a line: SAXS.
The target in another test is Gal-3 CRD (trGal-3) (Homo sapiens, UniProt P17931). The experiment in a line: hydrogen-deuterium exchange mass spectrometry. Type of test: binding. Conditions: absence vs presence of lactose; canonical site.
Gal-3 CRD (trGal-3), sequence (P17931 108-250 limits assumed): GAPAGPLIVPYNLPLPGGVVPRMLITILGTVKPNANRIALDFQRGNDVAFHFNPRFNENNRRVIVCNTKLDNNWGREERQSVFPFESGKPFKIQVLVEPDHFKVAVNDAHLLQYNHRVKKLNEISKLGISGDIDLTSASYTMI

For “Gal-3–8S–Gal-1 (covalently connected heterodimer, Gal-3 CRD, 33-aa Gal-8 linker, Gal-1 CRD)”, the stoichiometry N in test [1] and in test [2] was 2 each time.
On to `OC[C@H]1O[C@@H](O[C@H]2[C@H](O)[C@@H](O)C(O)O[C@@H]2CO)[C@H](O)[C@@H](O)[C@H]1O` (stereo partly drawn) [Lac], for which the “hydrogen-deuterium exchange mass spectrometry” value at Gal-3 CRD (trGal-3) is listed as “significantly decreased deuterium uptake was found in the region of the canonical binding site”.

Usually stoichiometry N stands for the number of molecules, sites or subunits per partner or assembly.

The values above are taken from paper PMC6386680 (Proceedings of the National Academy of Sciences of the …, 2019).
